Molecular target: the molecule itself
Test: native gel or EMSA; 4%-16% Bis-Tris Native gel; 50 μM IspG, 50 μM IspH and a mixture of 25 μM each

B1: Z. mobilis Strep-tag II IspG (enzyme, UniProt Q5NR50 1-377, looked up)
chain: MSIRPWRHIERRKSRKIMVGNVAVGGDAPISVQTMTNTPTVDAQATIAQIKRCEAVGVDLIRVSCPDKESTAALKDIVRAAEVPIIADIHFHYKRALEAADAGAACLRINPGNIGSSERVAEVVRAAKANGCAIRIGVNAGSLEKELLEKYGEPCPDALVESALNHIKLLQDQDFHEFKVAVKASDVFLAVASYKALAKAVDCPLHLGITEAGGLIGGTVKSALGIGNLLWDGIGDTLRVSLSADPEQEVRVGYDILKTLDLRTRGVRVVSCPSCARQGFDVVKTVKALEERLAHIATPISLSILGCVVNGPGEARETDIGVTGGGQGKHMVFLSGVTDHTVEDAKMLDHIVSLVEAKAAEIEAEKAKEKAATVAAE
notes: IspG of Zymomonas mobilis ZM4; coding region amplified from genomic DNA; carries a [4Fe-4S] cluster (occupancy 5-10%); also called Z. mobilis IspG; ispGZM; source: E. coli PK13681 (BL21 (DE3) derivative) with pPK13651 (pET11a), purified anaerobically (Streptrap HP, PD-10 desalting); not shown: Strep-tag II, C-terminal, kept
stoichiometry N: 2
